In patent publication US20120322725A1 (INDIANA UNIVERSITY RESEARCH AND TECHNOLOGY, published 2012):
Read-outs that look alike come from different tables or passages of the source. Each block holds one binder with its values, some of them ahead of it. Bridge positions count the residues as written; N and C are the ends. Square brackets hold non-standard residues; d marks the D form. Ends that are not written are not given here. PLA = 3-phenyllactic acid (2-hydroxy-3-phenylpropanoic acid); Abu(4-SO3H) = N[C@@H](CCS(=O)(=O)O)C(=O)O; PhLac = O=C(O)[C@@H](O)Cc1ccccc1

Columns and labels:
glucagon receptor [1] = biological target: T1, glucagon receptor (UniProt P47871 26-477, limits assumed); assay: cell-based or functional assay
glucagon receptor [2] = biological target: T1, glucagon receptor; assay: cell-based or functional assay; remark: listed apart in the source
glucagon receptor [3] = biological target: T1, glucagon receptor; assay: receptor binding, method not described
glucagon receptor [4] = biological target: T1, glucagon receptor; assay: cell-based or functional assay; remark: listed apart in the source
glucagon receptor [5] = biological target: T1, glucagon receptor; assay: cell-based or functional assay; remark: listed apart in the source
glucagon receptor [6] = biological target: T1, glucagon receptor; assay: receptor binding (named so for the same values in Table I), method not described
glucagon receptor [7] = biological target: T1, glucagon receptor; assay: receptor binding, method not described; remark: listed apart in the source
glucagon receptor [8] = biological target: T1, glucagon receptor; assay: cell-based or functional assay; remark: listed apart in the source
glucagon receptor [9] = biological target: T1, glucagon receptor; assay: column IC50(nM) beside the cAMP columns of Table H; taken as receptor binding
GLP-1 receptor [10] = biological target: T2, GLP-1 receptor (UniProt P43220 24-463, limits assumed); assay: cell-based or functional assay
glucagon receptor [11] = biological target: T1, glucagon receptor; assay: cell-based or functional assay; remark: listed apart in the source
GLP-1 receptor [12] = biological target: T2, GLP-1 receptor; assay: cell-based or functional assay; remark: listed apart in the source
glucagon receptor [13] = biological target: T1, glucagon receptor; assay: cell-based or functional assay; remark: listed apart in the source
glucagon receptor [14] = biological target: T1, glucagon receptor; assay: receptor binding, method not described; remark: listed apart in the source
glucagon receptor [15] = biological target: T1, glucagon receptor; assay: receptor binding, method not described; remark: listed apart in the source

T1 sequence (P47871 26-477 limits assumed): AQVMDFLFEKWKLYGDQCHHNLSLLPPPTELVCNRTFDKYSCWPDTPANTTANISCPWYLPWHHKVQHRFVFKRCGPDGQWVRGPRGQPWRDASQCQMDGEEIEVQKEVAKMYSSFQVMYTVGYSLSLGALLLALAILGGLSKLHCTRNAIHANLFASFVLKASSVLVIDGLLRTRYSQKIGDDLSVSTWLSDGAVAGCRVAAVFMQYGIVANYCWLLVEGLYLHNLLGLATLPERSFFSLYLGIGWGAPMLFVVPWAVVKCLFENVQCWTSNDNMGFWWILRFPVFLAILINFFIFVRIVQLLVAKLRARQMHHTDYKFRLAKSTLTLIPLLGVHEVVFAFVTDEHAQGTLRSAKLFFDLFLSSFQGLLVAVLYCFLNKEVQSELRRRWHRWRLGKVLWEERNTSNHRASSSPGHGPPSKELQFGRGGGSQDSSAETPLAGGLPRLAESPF

IC50(nM) (cAMP, inhibit 0.8 mM Glucagon) (glucagon receptor [1]): 328 nM
Binder: {PLA}-FTSEYSKYLDSRRAQDFVQWLMNT-NH2 [[PLA^5, E^9]Glucagon(aa5-29)-NH2]

cAMP Inhibition IC50 (glucagon receptor [2]): 97 nM | IC50 (glucagon receptor [3]): 36.4 nM | cAMP IC50 (glucagon receptor [4]): 97.2 nM | cAMP pA2 (glucagon receptor [4]): 7.16 | cAMP (I/A)50 (glucagon receptor [5]): 486 | cAMP pA2 (glucagon receptor [5]): 7.16 | IC50 (glucagon receptor [6]): 36.4 nM | IC50 (glucagon receptor [7]): 36 nM
B1: [Glu^9]Glucagon(aa6-29)-NH2 (peptide)
peptide: FTSEYSKYLDSRRAQDFVQWLMNT-NH2
notes: also called [E^9]Glucagon(aa6-29)-NH2; peptide no

IC50(nM) (cAMP, inhibit 0.8 mM Glucagon) (glucagon receptor [1]): 38.1 nM
Binder: {Ac-PLA}-TSEYSKYLDSRRAQDFVQWLMNT-NH2 [[Ac-PLA^6, E^9]Glucagon(aa6-29)-NH2]

cAMP IC50 (glucagon receptor [8]): 133 nM | cAMP pA2 (glucagon receptor [8]): 7.16 | IC50 (glucagon receptor [3]): 59.1 nM | cAMP IC50 (glucagon receptor [4]): 133 nM | cAMP pA2 (glucagon receptor [4]): 7.16 | IC50 (glucagon receptor [9]): 59.1 nM
B2: [hCys^9(SO3H)]Glucagon(aa6-29)-NH2 (peptide)
peptide: FTS[Abu(4-SO3H)]YSKYLDSRRAQDFVQWLMNT-NH2
notes: also called [hCys(SO3)9]Glucagon(aa6-29)-NH2

GLP-1 EC50 (GLP-1 receptor [10]): 151 nM | Glucagon IC50 (glucagon receptor [11]): 10 to 30 nM
B3: [E9, E16K20(lactam), D28]G(4~29) (peptide)
peptide: GTFTSEYSKYLDERRAKDFVQWLMDT
HELM: PEPTIDE1{G.T.F.T.S.E.Y.S.K.Y.L.D.E.R.R.A.K.D.F.V.Q.W.L.M.D.T.[am]}$PEPTIDE1,PEPTIDE1,13:R3-17:R3$$$V2.0; N-terminus assumed
SMILES: CSCC[C@H](NC(=O)[C@H](CC(C)C)NC(=O)[C@H](Cc1c[nH]c2ccccc12)NC(=O)[C@H](CCC(N)=O)NC(=O)[C@@H](NC(=O)[C@H](Cc1ccccc1)NC(=O)[C@H](CC(=O)O)NC(=O)[C@@H]1CCCCNC(=O)CC[C@H](NC(=O)[C@H](CC(=O)O)NC(=O)[C@H](CC(C)C)NC(=O)[C@H](Cc2ccc(O)cc2)NC(=O)[C@H](CCCCN)NC(=O)[C@H](CO)NC(=O)[C@H](Cc2ccc(O)cc2)NC(=O)[C@H](CCC(=O)O)NC(=O)[C@H](CO)NC(=O)[C@@H](NC(=O)[C@H](Cc2ccccc2)NC(=O)[C@@H](NC(=O)CN)[C@@H](C)O)[C@@H](C)O)C(=O)N[C@@H](CCCNC(=N)N)C(=O)N[C@@H](CCCNC(=N)N)C(=O)N[C@@H](C)C(=O)N1)C(C)C)C(=O)N[C@@H](CC(=O)O)C(=O)N[C@H](C(N)=O)[C@@H](C)O

GLP-1 EC50 (GLP-1 receptor [10]): 177 nM | Glucagon IC50 (glucagon receptor [11]): 63 nM | GLP-1 EC50 (GLP-1 receptor [12]): 21 nM | Glucagon IC50 (glucagon receptor [13]): 13 nM
B4: [PLA6, D9, K12E16(Lactam), D28]G(6-29) (peptide)
peptide: TSDYSKYLDERRAQDFVQWLMDT
modifications: not fully specified; PLA at position 6, N-terminal to the letters given; lactam between K12 and E16

cAMP Inhibition IC50 (glucagon receptor [2]): 128 nM | cAMP pA2 (glucagon receptor [5]): 7.05
Binder: GTFTSEYSKYLDSRRAQDFVQWLMNT-NH2 (also called peptide no) [[Glu^9]Glucagon(aa4-29)-NH2]

cAMP IC50 (glucagon receptor [8]): 98.3 nM | cAMP pA2 (glucagon receptor [8]): 6.77 | IC50 (glucagon receptor [9]): 33.9 nM
B5: [hCys^9(SO3H)]Glucagon(aa5-29)-NH2 (peptide)
peptide: TFTSXYSKYLDSRRAQDFVQWLMNT
HELM: PEPTIDE1{T.F.T.S.[O=C([C@H](CCS(=O)(=O)O)N[*:1])[*:2]].Y.S.K.Y.L.D.S.R.R.A.Q.D.F.V.Q.W.L.M.N.T.[am]}$$$$V2.0; N-terminus assumed
SMILES: CSCC[C@H](NC(=O)[C@H](CC(C)C)NC(=O)[C@H](Cc1c[nH]c2ccccc12)NC(=O)[C@H](CCC(N)=O)NC(=O)[C@@H](NC(=O)[C@H](Cc1ccccc1)NC(=O)[C@H](CC(=O)O)NC(=O)[C@H](CCC(N)=O)NC(=O)[C@H](C)NC(=O)[C@H](CCCNC(=N)N)NC(=O)[C@H](CCCNC(=N)N)NC(=O)[C@H](CO)NC(=O)[C@H](CC(=O)O)NC(=O)[C@H](CC(C)C)NC(=O)[C@H](Cc1ccc(O)cc1)NC(=O)[C@H](CCCCN)NC(=O)[C@H](CO)NC(=O)[C@H](Cc1ccc(O)cc1)NC(=O)[C@H](CCS(=O)(=O)O)NC(=O)[C@H](CO)NC(=O)[C@@H](NC(=O)[C@H](Cc1ccccc1)NC(=O)[C@@H](N)[C@@H](C)O)[C@@H](C)O)C(C)C)C(=O)N[C@@H](CC(N)=O)C(=O)N[C@H](C(N)=O)[C@@H](C)O

cAMP IC50 (glucagon receptor [8]): 68.4 nM | cAMP pA2 (glucagon receptor [8]): 7.22 | IC50 (glucagon receptor [9]): 41.5 nM
B6: [hCys^9(SO3H)]Glucagon(aa4-29)-NH2 (peptide)
peptide: GTFTSXYSKYLDSRRAQDFVQWLMNT
HELM: PEPTIDE1{G.T.F.T.S.[O=C([C@H](CCS(=O)(=O)O)N[*:1])[*:2]].Y.S.K.Y.L.D.S.R.R.A.Q.D.F.V.Q.W.L.M.N.T.[am]}$$$$V2.0; N-terminus assumed
SMILES: CSCC[C@H](NC(=O)[C@H](CC(C)C)NC(=O)[C@H](Cc1c[nH]c2ccccc12)NC(=O)[C@H](CCC(N)=O)NC(=O)[C@@H](NC(=O)[C@H](Cc1ccccc1)NC(=O)[C@H](CC(=O)O)NC(=O)[C@H](CCC(N)=O)NC(=O)[C@H](C)NC(=O)[C@H](CCCNC(=N)N)NC(=O)[C@H](CCCNC(=N)N)NC(=O)[C@H](CO)NC(=O)[C@H](CC(=O)O)NC(=O)[C@H](CC(C)C)NC(=O)[C@H](Cc1ccc(O)cc1)NC(=O)[C@H](CCCCN)NC(=O)[C@H](CO)NC(=O)[C@H](Cc1ccc(O)cc1)NC(=O)[C@H](CCS(=O)(=O)O)NC(=O)[C@H](CO)NC(=O)[C@@H](NC(=O)[C@H](Cc1ccccc1)NC(=O)[C@@H](NC(=O)CN)[C@@H](C)O)[C@@H](C)O)C(C)C)C(=O)N[C@@H](CC(N)=O)C(=O)N[C@H](C(N)=O)[C@@H](C)O

Glucagon IC50 (glucagon receptor [11]): 10 to 30 nM | GLP-1 EC50 (GLP-1 receptor [12]): 4 nM | Glucagon IC50 (glucagon receptor [13]): 6 nM
Binder: {PLA}-TSDYSKYLDERRAKDFVQWLMDT-NH2 (lactam 10-14) [[PLA6, D9, E16K20(lactam), D28]G(6-29)]

GLP-1 EC50 (GLP-1 receptor [10]): 0.28 nM
Binder: HSQGTFTSDYARYLDARRAREFIKWLVRGRG [ANK2 (Bayer peptide)]

IC50 (glucagon receptor [14]): 12.3 nM | IC50(nM) (cAMP, inhibit 0.8 mM Glucagon) (glucagon receptor [1]): 64.8 nM | IC50 (glucagon receptor [15]): 12.3 nM
Binder: [PhLac]TSEYSKYLDSRRAQDFVQWLMNT-NH2 [[PLA6, E9]Glucagon(aa6-29)-NH2]
